From paper PMC3332082

Assays:
[1] = target: murine cdb3-GFP, substitution of residues 25-31 (negative residues introduced) (mouse) (UniProt P04919); assay: other fluorescence titration
[2] = target: murine cdb3-GFP, substitution of residues 19-23 (acidic residues to amides) (mouse) (UniProt P04919); assay: FRET or BRET
[3] = target: murine cdb3-GFP, substitution of residues 12-23 (all 7 acidic residues to amides) (mouse) (UniProt P04919); assay: FRET or BRET
[4] = target: murine cdb3-GFP, deletion of residues 19-23 (mouse) (UniProt P04919); assay: FRET or BRET

## murine hemoglobin (from erythrocytes of C57BL/6J mice) (from UniProt P01942 1-142; P02088 1-147) (complex)
[1]
  Kd: 390 nM
[2]
  reduction in deoxyHb binding against wild type: 60%
[3]
  affinity for deoxyHb, percent of normal: 15%
[4]
  reduction in deoxyHb binding against wild type: 60%
